This is an account of results in the DeepSol protein solubility set.

This series is described as follows: soluble on expression in E. coli; label from the status in PepcDB or PDB records.
Take “MAHHHHHHSLSGPRVERLEVSAYTVPTDYPESDGTLQWDSTTMILVEAHGGGRKGLGYTYGDVSVGRFVESKLAGVAEGSDALSPPAVWARMQAAIRNAGRPGVGAMAVSAVDIALWDLKARLLGLPLADALPRFHAEVPVYGSGGFTSYPLRRLQEQLGGWAAAGIPRVKMKVGREPEKDPERVRAAREAIGESVELMVDANGAYTRKQALYWAGAFAREAGISYLEEPVSSEDREGLRLLRDRGPGGVAIAAGEYEWTLPQLHDLAGCVDILQADVTRCGGITGLLRVDGICRGHQIPFSAHCAPAVSAHACCAVESLLHLEYFHDHARVERLLFDGTLDPEGGSLRPDPDRPGLGLELKRSEAGKYAA”: the “soluble on expression in E. coli” value is “soluble”.

With “MSLSLMLTVETRQAVNPDYAKTLDTEGLRRHFLANDMFRSGEIRLIYTHYDRFVMGGAVPNGAPLTLDKVEETKTPSFLDRREMGIVNIGETGTVSAGDETYTLNRGDVLYLGAGSRAVTFDGAGRFYITSCPAHRSLPAKLVSLADSKEVKLGATETSNKRTINQFIHPLVMESCQLVLGYTMLEDGSVWNTIPSHIHDRRMEAYLYFGMDEKSRVLHLMGEPQETRHLFISNEEGAISPPWSIHSGAGIGSYTFIWAMAGDNVDYTDMDFIQPGDLKEGHHHHHH”, the “soluble on expression in E. coli” value is given as “soluble”.

In the case of “MAIQVKASLRKNPQDKKAAGKYYAQVVLAPEMTQRQIIDQIADRCTVTGSDVKAVLDALMTVIKRNLANGSPIRLGDLGSFRPSVSGIGSENVDKFTASNVKKARVIYVPSAEIKEAVAMYAFSKVGATAEGGNTEKPGGGDIDNPGGGDEEAPDPTVLEHHHHHH”, the “soluble on expression in E. coli” value is given as “soluble”.

Regarding “MSLSNLTIDVQTVTQKGKKPYIEYQINRPSFHNFSDSKFQNKLNFYYKKSTDKFKTRLEKDAKKYYKETEGSSTPFHPYVANVDYKVSLNKPPLLSLYLNYYQYTGGAHGMYTWKANTFDLKEKKLLHLDDLFQQEDKYKEVIRAEIVRKIKQNEGIYFPDATEKVMSTKKFHFFLEPNNLVIYFPLYEIAPYSSGIPQFRIPYTLLREYLKPSYQNILIDNKEGHHHHHH”, the “soluble on expression in E. coli” value is “soluble”.

With “MLIDDIDFADLYLQQLKLAHRTEKTPDHWDQRAEKMAENCASPTDSYLQQLIAKIDLQGAQTLFDMGCGPGTVSLALADKLTTVYGVDYSQGMLNVAARRAAALKADNVHWIQRAWEEDWSDLPRCDIAVASRSTLVADMRHAMSKLNNQARLRVYTTHLVSTSFVSPAIQRAAGREVIELPNYIFALNVLYQMGIYAHVDFIRGQNCQQDNSTWERFEQNVSWSLGALNDDERERLYHWYQQQDARALAPASRDWALIWWDSVPQEAL”, the “soluble on expression in E. coli” value was “not soluble”.

“MPDFAKQGPIVIGGVGGSGTRLIAEIVMDMGFYLGGMLNQSKDLLYFSLLFKRPTWFSKVVTSNEQEIFRGLKILENRLTTQKELTGKDIKFIEKAAQTYRNGDLLAQKIKKNMLFPDPINRQLYRGWGWKEPNAHLFLPYIHRYFPNGKYIHVIRNGLNMAFSKNQQQLFNWGPLFGVTIPNNPMKIPNASLTYWIKANERAVMYGTEQMKGRFLLIQFDQLCVNPTPQLQKLAEFLAVDDLAIDEWSEKIDPAAAASKYKEADLEHHHHHH”: the “soluble on expression in E. coli” value is given as “not soluble”.

For the sequence “MGSDKIHHHHHHIDQWIRRQHHPTGNPTATQNKVFIATQNQPLLMDTGEKKSPPPPTPPNPPVNHAIAPVAQHPQPMPIPHQVPSPAHGAAHGHPQAPPMYPGIGFAPGMLQLPQNMQTTIVYTPSMAYDNGHPAAQVN”, the “soluble on expression in E. coli” value is recorded as “not soluble”.

For the sequence “MGILFTRIWRLFNHQEHKVIIVGLDNAGKTTILYQFSMNEVVHTSPTIGSNVEEIVINNTRFLMWDIGGQESLRSSWNTYYTNTEFVIVVVDSTDRERISVTREELYKMLAHEDLRKAGLLIFANKQDVKECMTVAEISQFLKLTSIKDHQWHIQACCALTGEGLCQGLEWMMSRLKIRLEHHHHHH”, the “soluble on expression in E. coli” value is recorded as “soluble”.

In the case of “MSLAQLEHALQHDLQRLAHGGEPWVRPRVHPAGHVYDVVIVGAGQSGLGAAFALQRERVHNVLVIDENPPGQEGPWVTYARMQTLRTPKQITSIDLGVPTLTFRAWWEAQHGAAGWDALDKIPRGTWMDYLRWYRAALRLPVRNATQLVRIEPDAAPGIHRLHLAMGAPLMARKIILATGIQGGGQWQVPEWITQALPAQRYAHTSGPIDYAALAGKRVGILGGGASAFDNACFALDQGVARAEVFVRRAALPRVNPIRHMEQAGIIPRFAALPDADKYRMMASFFGRNQPPTNDTFQRACAHAGFALHLDAPWLGVEEHNDVVVVRTPQGEHRFDFLAIATGLVTDPRLRPELAALSGRIACWADRYQAPPGQANPVLDAHPYLGPGFELLPRTPDDAAAVDGLFAFNYSALINHGLSAAALSGLKVALPRLARAVADQLFLDDRQAMVEAYLGYDQAEFVGQWPQPTQAVALEHHHHHH”, the “soluble on expression in E. coli” value is on record as “soluble”.

“MAHHHHHHMHAVPKDDAEAPLSNTESRGRVALIDTSGYASDMNISAFVPQHAMKPYRVLAAMEIVRSLKIDAHCRTVVPPLVKVEELMAYHTDTYLANLGLHSCRSWLWNAETSKVFFSGDCPPVEGLMEHSIATASGTLMGAVLLNSGQVDVAVHWGGGMHHSKCGECSGFCYVNDIVLGILELLKCHDRVLYVDIDMHHGDGVDEAFCTSDRVFTLSLHKFGESFFPGTGHPRDVGYGRGRYYSMNLAVWDGITDFYYLGIFEHALHSIVRRYSPDAIVLQCGADSLAGDRLGLLNLSSFGHGQCVQAVRDLGIPMLALGGGGYTIRNVAKLWAYETSILTGHPLPPNTVLPVAEMPLSGWLFQDSPLLIVAQDRSNHVLPGLHCQRAYQMMTEQIDRHVPHIQPHPRLQKAFTAAEAADKQVEDGTTAVEDFK”: the “soluble on expression in E. coli” value is “not soluble”.

Regarding “MAKDIYKTFKRSVSGIVGGNNINGEGSSSPSTSAPQVKYRGGTGRTWIHPPDYLINGHVEYVARFLGCVETPKANGSDVAREAIHAIRFQRDLKRSEQTRETAKLQKVEIRISIDNVIIADIKTKAPMYTFPLGRISFCADDKDDKRMFSFIARAEGASGKPSCYAFTSEKLAEDITLTIGEAFDLAYKRFLDKNRTSLENQKQIYILKKKIVELETENQVLIERLAEALRANSKADYENTGPPIYPGLGPPALPLSPMPQGPPPNIPPSSIYSMPRANDLPPTEMAPTLPQISTSSNGASPSVSPASTSPSGPAPSIPPPRPPALAPPPPVAPRRNPVVSPKNSTAGLLDGLELGSAEPAKKAPSNIFDDSFDPRAGEKKSTAAEYNPFGADFLSGIQNGKEAPPSASAELLASEAIARLPKPESSSVPPKKTAAEYDAMINEVEKKLAAMSSGSFEFGQLQTGDLGGIEGESDYGTPSDRLNPKMMNLKQ”, the “soluble on expression in E. coli” value is “not soluble”.

For the sequence “MAHHHHHHMLMCAGRKRFYFSLPSSRALKNIVKLPLLEREDKQKIIHIWKEKYQNDKYVVADHIHISKYEQIKNNCKNNSHFIIPQRNQNGYINFYSQFIDHKLLFITALEEYNKLRANSTPYVTLHFFDELKSREIILTKLNIVNNVITKNQAIKFYNYILSFYSDANYFPYVCKFNNDSRNFHYDAFIDKFKHLC”, the “soluble on expression in E. coli” value is “not soluble”.

Take “MDSLPTSATNGPAGLSAEADAEPHARLTFDLDVDLCVIGAGLAGLSVALEAAQAGLSVAVLESGRIGWGASGHNLGSVTPGYGVPIGDLIARVGLDHASALWALTREGMEIVRARATEEAMPGVALSDGALEVSNVDIGDRLVERLQTLGVDFGSEVEGWPIDKVRDVLRTNRYFHGIHYPTAFQLDGRRYLRGLERLARQAGARIFEETPAVSIDFAGIRKRISTPNARLRASDIVLAGSVHLGAPSPRVAETLLPVWRTAALTAPLGEQLPDAIAFAGSIADTDGVDHYRIVGGDRLLWASGETTFDVAPQRLAGIIRRRIAAVFPQLGQVEIAQTFSAAVGMTVHGMPQVGELRPGLWVASGFGRQGLATTAIAGRLIARGLTHSDERWKLFSPFDLVWAGGTIGRIVGQGVYFATREGALAAGALARYRERAAARTRVRDARAEVKQEERRARVALLRAAEAANVPPPNAPSRRPVPPPSPELEHHHHHH”: the “soluble on expression in E. coli” value is given as “not soluble”.

Consider “MGDIEGSSSAAQSAQPEETGETNADKTGFFTRIMDAFSSGESQQEPTLGGASAAPVPVPGILNLRRMRVEDVAIPTAEIVSVPLTVSKEELVHVFRDSGMTRIPVYENTLDTPLGFVHLKDFALTHGFNGNSTQFDLRSMLRPLLFVPPSMPIGVLLAKMQTERRHMALVIDEYGGVDGLLTIEDLIEQVVGEIEDEHDTDEAQTWVKERPGCYIAQARTPLDEFETEIGRSLTNHEDVDEEEIDTLGGLVFMLSGRVPARGEVVPHPDGVEFEVIDADPRRIKRLRVMIPDAAE”, for which the “soluble on expression in E. coli” value was “not soluble”.
